Columns and labels:
[1] = tested on: mouse model of controlled cortical impact (CCI); assay: Morris Water Maze in CCI TBI mice; format: in vivo
Source text: The mouse controlled cortical impact (CCI) injury model was used as previously described. In brief, mice were anesthetized with 5% isoflurane and 1:1 O2:N2 mixture. Animals were mounted on a stereotaxic frame and were secured by ear bars and an incisor bar. Anesthesia was maintained with 2.0% isoflurane and 1:1 O2:N2 mixture. A 5-mm-diameter craniotomy was made midway between bregma and lambda on the right side, with the medial edge of the craniotomy 1 mm lateral to midline. Injury was produced using a magnetic impactor mounted at an angle of 110° from the vertical plane. A single impact at a velocity of 4+/−0.2 m/s was used inflict a moderate to severe injury (1.2-1.3 mm impact depth). After injury, the incision was closed. Sham animals underwent identical surgeries except for impact injury. Core body temperature was monitored using a rectal thermometer and maintained at 36.8° C.-37.2° C. with a heating pad throughout the procedure. For treatments, TIMP3 (60.0 μg/kg) or vehicle control (PBS) administration was performed at 2, 24, and 48 hrs after injury via tail vein injections in a total volume of 125 μl. Animal research was performed with approval of the Institutional Animal Care and Use Committee at ISIS Services LLC (San Carlos, Calif., USA). Mice received humane care according to the criteria outlined by the National Research Council's Institute of Laboratory Animal Resources in the “Guide for the Care and Use of Laboratory Animals”. Neurocognitive testing conducted at UT Houston was in compliance with University of Texas Houston Institutional Animal Care and Use Committee.
A modified Morris water maze task was used to assess long-term memory. Mice were trained to find the location of a hidden platform in one day. This was followed by probe at 30 mins following the last trial and another probe 24 hrs later. Mice were given 10 training trials with an inter-trial interval of 15 mins. Each trial was initiated by placing the animal into the water maze at one of four randomly chosen starting positions. The animal was allowed to search for the hidden platform for a period of 1 min, and the time to find the platform recorded. […] At thirty minutes and twenty-four hours following the final training trial, animals were tested in a probe trial in which the platform was removed from the tank and allowed to search for a period of 1 min. Movement within the maze was monitored using a video camera linked to […] software (Ethovision™, Noldus Information Technology, Leesbury, Va.). Measures of memory, including latency to first platform crossing, and number of crossings were recorded.

[2] = tested on: NeuN+ve hilar neurons of the dentate gyrus; assay: NeuN staining of hilar neurons of the dentate gyrus 7 days post-TBI; format: in vivo, mouse
Source text: (§1) The mouse controlled cortical impact (CCI) injury model was used as previously described. In brief, mice were anesthetized with 5% isoflurane and 1:1 O2:N2 mixture. Animals were mounted on a stereotaxic frame and were secured by ear bars and an incisor bar. Anesthesia was maintained with 2.0% isoflurane and 1:1 O2:N2 mixture. A 5-mm-diameter craniotomy was made midway between bregma and lambda on the right side, with the medial edge of the craniotomy 1 mm lateral to midline. Injury was produced using a magnetic impactor mounted at an angle of 110° from the vertical plane. A single impact at a velocity of 4+/−0.2 m/s was used inflict a moderate to severe injury (1.2-1.3 mm impact depth). After injury, the incision was closed. Sham animals underwent identical surgeries except for impact injury. Core body temperature was monitored using a rectal thermometer and maintained at 36.8° C.-37.2° C. with a heating pad throughout the procedure. For treatments, TIMP3 (60.0 μg/kg) or vehicle control (PBS) administration was performed at 2, 24, and 48 hrs after injury via tail vein injections in a total volume of 125 μl. Animal research was performed with approval of the Institutional Animal Care and Use Committee at ISIS Services LLC (San Carlos, Calif., USA). […]

[3] = tested on: S6 Ribosomal Protein (S235/236) in SH-SY5Y cells; assay: S6 Ribosomal Protein (S235/236) phosphorylation in SH-SY5Y cells; format: cell-based, human; settings: 1 μg/ml TIMP3, 15 mins
Procedure: SH-SY5Y cells were obtained from ATCC (Cat# CRL-2266, Manassas, Va.) and were cultured in DMEM and 10% FBS up to passage 10. For differentiation of SH-SY5Y cells into a neuronal phenotype, cells were first plated in DMEEM+10% FBS for 24 hrs before exchanging media in DMEM+1% FBS 10 μM retinoic acid. Differentiation was performed for 3 days before experimentation. Hippocampal neurons were prepared according to the protocol by Beaudoin et al. (Nature Protocols 2012; 7(9):1741-1754) with minor modifications. In brief, after trypsin digestion of hippocampi isolated from P1 mouse pups single cell suspensions was created by trituration and plated onto Biocoat™ poly-D-lysine coated 12-well plates (Cat#354470, BD Biosciences, San Jose, Calif.). 2 pups were used per well and cell suspensions were incubated for 10 minutes per well for a total of 6 wells. The serial incubation allowed for variation in cell densities applicable to different experiments but also contributed to the reduction in non-neuronal cells. […]
Pathscan Antibody™ array kits were purchased from Cell Signaling Technologies (Danvers, Mass.). PathScan® RTK signaling antibody array kit (Fluorescent Readout, Cat#7949) and PathScan™ Akt signaling antibody array kit (Fluorescent Readout, Cat#9700) were performed as per manufacturer's instructions. Imaging was performed on a LI-COR Odyssey™ infrared scanner and pixel densities measured by in house LI-COR Image™ suite software.
Cell lysates for western blotting were prepared with RIPA buffer (Cat#89900. Thermofisher Scientific, Rockford, Ill.) supplemented with phosphatase inhibitor cocktail 2 (Cat# P5726. Sigma, St Louis, Mo.), phosphatase inhibitor cocktail 3 (Cat# P0044. Sigma, St Louis, Mo.) and complete protease inhibitor (Cat#1862209. Thermofisher Scientific, Rockford, Ill.). […] Protein content was quantified with a Pierce BCA protein assay kit per manufacturer's instructions (Cat#23225. Thermofisher Scientific, Rockford, Ill.).
Lysates was analyzed in conjuncture with the LI-COR Odyssey™ infra-red imaging system. […]

[4] = tested on: phospho-Akt (Ser473) in hippocampal homogenates; assay: Hippocampal phospho-Akt western blot 3 days post-TBI; format: in vivo, mouse
Source text: as §1, with “Sham animals underwent identical surgeries except for impact injury.” left out, “procedure.” for “procedure. For treatments, TIMP3 (60.0 μg/kg) or vehicle control (PBS) administration was performed at 2, 24, and 48 hrs after injury via tail vein injections in a total volume of 125 μl. Animal research was performed with approval of the Institutional Animal Care and Use Committee at ISIS Services LLC (San Carlos, Calif., USA).”
Cell lysates for western blotting were prepared with RIPA buffer (Cat#89900. Thermofisher Scientific, Rockford, Ill.) supplemented with phosphatase inhibitor cocktail 2 (Cat# P5726. Sigma, St Louis, Mo.), phosphatase inhibitor cocktail 3 (Cat# P0044. Sigma, St Louis, Mo.) and complete protease inhibitor (Cat#1862209. Thermofisher Scientific, Rockford, Ill.). […] Protein content was quantified with a Pierce BCA protein assay kit per manufacturer's instructions (Cat#23225. Thermofisher Scientific, Rockford, Ill.). […]

[5] = long-term probe, TBI+TIMP3 vs TBI alone

B1: TIMP3: Recombinant tissue inhibitor of matrix metalloproteinase-3, a soluble protein released by MSCs, obtained from Amgen Inc. (protein)
chain: CTCSPSHPQDAFCNSDIVIRAKVVGKKLVKEGPFGTLVYTIKQMKMYRGFTKMPHVQYIHTEASESLCGLKLEVNKYQYLLTGRVYDGKMYTGLCNFVERWDQLTLSQRKGLNYRYHLGCNCKIKSCYYLPCFVTSKNECLWTDMLSNFGYPGYQSKHYACIRQKGGYCSWYRGWAPPDKSIINATDP
B1 was tested, and the “ability to learn the platform location during training” value ([1]; TBI+TIMP3 vs TBI alone) was “did not significantly differ”, the “total number of correct platform crossings (Morris Water Maze)” value ([1]; TIMP3 60 μg/kg IV x3, long-term memory probe 24 hrs after training, days 8-9) was 1.9±0.4 and the “latency to first platform crossing” value [1, 5] was “did not significantly differ”. For the same molecule, the “time in the area around the platform (concentric rings)” value [1, 5] was “spent more time in the area around the platform”, the “NeuN staining, contralateral side” value [2] was “no significant differences on the contralateral side” and the “NeuN+ve neurons in the hilus, ipsilateral” value ([2]; IV TIMP3 vs TBI) was “significantly attenuated the loss of NeuN+ve cells”. For the same molecule, the “S6 Ribosomal Protein (S235/236) activation, western blot” value [3] was “activates S6 Ribosomal Protein (S^235/236)”, the “S6 Ribosomal Protein (S235/236) phosphorylation, antibody array” value [3] was “phosphorylates mTORC1 pathway target S6 Ribosomal Protein (S^235/236)” and the “phospho-Akt (Ser473) in ipsilateral hippocampal homogenates” value ([4]; TIMP3 60 μg/kg IV x3, day 3, 1 hr after last injection, vs TBI alone) was “significantly elevates”. For the same molecule, the “Phospho-Akt (Ser473) in contralateral hippocampal homogenates” value ([4]; day 3) was “No differences were observed”.
